Experimental data published in patent publication US20140323392A1 (UNIVERSITY OF UTAH RESEARCH FOUNDATION, published 2014).
Where two headings read alike, the source gives them in different places. Bridges are numbered along the chain shown (N, C = ends). Roman numbers before positions name the chains, in order. Where no end group is shown, it is not given here. [ ]: non-standard residue; d: D form.

What was measured:
Test in all cases: cell-based or functional assay
[1] = molecular target: T1, HIV-1 JRFL envelope glycoprotein gp41 (N-trimer of the prehairpin intermediate) (HIV-1 strain JRFL)
[2] = molecular target: HIV-1 isolate IIIB gp41 (envelope subtype B) (HIV-1 isolate IIIB)
[3] = molecular target: HIV-1 isolate Ba-L gp41 (envelope subtype B) (HIV-1 isolate Ba-L)
[4] = molecular target: HIV-1 isolate JR-CSF gp41 (envelope subtype B) (HIV-1 isolate JR-CSF)
[5] = molecular target: HIV-1 isolate 92UG029 gp41 (envelope subtype A) (HIV-1 isolate 92UG029)
[6] = molecular target: HIV-1 isolate 92UG037 gp41 (envelope subtype A) (HIV-1 isolate 92UG037)
[7] = molecular target: HIV-1 isolate 93IN101 gp41 (envelope subtype C) (HIV-1 isolate 93IN101)
[8] = molecular target: HIV-1 isolate 92BR025 gp41 (envelope subtype C) (HIV-1 isolate 92BR025)
[9] = molecular target: HIV-1 isolate 92UG001 gp41 (envelope subtype D) (HIV-1 isolate 92UG001)
[10] = molecular target: HIV-1 isolate 92UG046 gp41 (envelope subtype D) (HIV-1 isolate 92UG046)
[11] = molecular target: HIV-1 isolate CMU02 gp41 (envelope subtype AE) (HIV-1 isolate CMU02)
[12] = molecular target: HIV-1 isolate 93TH073 gp41 (envelope subtype E) (HIV-1 isolate 93TH073)
[13] = molecular target: HIV-1 isolate CMU06 gp41 (envelope subtype E) (HIV-1 isolate CMU06)
[14] = molecular target: HIV-1 isolate 93BR019 gp41 (envelope subtype BF) (HIV-1 isolate 93BR019)
[15] = molecular target: HIV-1 isolate 93BR020 gp41 (envelope subtype F) (HIV-1 isolate 93BR020)
[16] = molecular target: HIV-1 isolate 93BR029 gp41 (envelope subtype F) (HIV-1 isolate 93BR029)
[17] = molecular target: HIV-1 isolate G3 gp41 (envelope subtype G) (HIV-1 isolate G3)
[18] = molecular target: HIV-1 isolate RU570 gp41 (envelope subtype G) (HIV-1 isolate RU570)
[19] = molecular target: T2, HIV-1 HXB2 envelope glycoprotein gp41 (N-trimer of the prehairpin intermediate) (HIV-1 strain HXB2, UniProt P04578 512-856)
[20] = molecular target: T1, HIV-1 JRFL envelope glycoprotein gp41 …; remark: listed apart in the source
[21] = molecular target: T2, HIV-1 HXB2 envelope glycoprotein gp41 …; remark: listed apart in the source
[22] = molecular target: T3, HIV-1 HXB2 envelope glycoprotein gp41 with resistance mutations E560K/V570I (HIV-1 strain HXB2, UniProt P04578 33-856)
[23] = molecular target: T4, HIV-1 HXB2 envelope glycoprotein gp41 with resistance mutation Q577R (HIV-1 strain HXB2, UniProt P04578 33-856)
[24] = molecular target: T2, HIV-1 HXB2 envelope glycoprotein gp41 …; remark: listed apart in the source
[25] = molecular target: T2, HIV-1 HXB2 envelope glycoprotein gp41 …; remark: listed apart in the source
[26] = molecular target: T1, HIV-1 JRFL envelope glycoprotein gp41 …; remark: listed apart in the source
[27] = molecular target: T1, HIV-1 JRFL envelope glycoprotein gp41 …; remark: listed apart in the source
[28] = molecular target: T3, HIV-1 HXB2 envelope glycoprotein gp41 …; remark: listed apart in the source
[29] = molecular target: T4, HIV-1 HXB2 envelope glycoprotein gp41 …; remark: listed apart in the source
[30] = molecular target: T2, HIV-1 HXB2 envelope glycoprotein gp41 …; remark: listed apart in the source

Ac-[dH][dP][dC][dD][dY][dP][dE][dW][dQ][dW][dL][dC][dE][dL]G[dK]-NH2 (disulfide 3-12 (inferred); also: trimer, crosslinking not given here) [PIE12 trimer (Table 3)]
IC50, replication competent virus on PBMC target cells [1]: 0.26 nM
IC50, replication competent virus on PBMC target cells [2]: 0.78 nM
IC50, replication competent virus on PBMC target cells [3]: 0.27 nM
IC50, replication competent virus on PBMC target cells [4]: 0.08 nM
IC50, replication competent virus on PBMC target cells [5]: 0.69 nM
IC50, replication competent virus on PBMC target cells [6]: 0.21 nM
IC50, replication competent virus on PBMC target cells [7]: 0.38 nM
IC50, replication competent virus on PBMC target cells [8]: 5.19 nM
IC50, replication competent virus on PBMC target cells [9]: 4.45 nM
IC50, replication competent virus on PBMC target cells [10]: 1.2 nM
IC50, replication competent virus on PBMC target cells [11]: 0.35 nM
IC50, replication competent virus on PBMC target cells [12]: 0.84 nM
IC50, replication competent virus on PBMC target cells [13]: 0.38 nM
IC50, replication competent virus on PBMC target cells [14]: 4.72 nM
IC50, replication competent virus on PBMC target cells [15]: 0.37 nM
IC50, replication competent virus on PBMC target cells [16]: 0.79 nM
IC50, replication competent virus on PBMC target cells [17]: 1.21 nM
IC50, replication competent virus on PBMC target cells [18]: 0.36 nM

B1: PEG4-PIE12-trimer (peptide)
peptide: Ac-[dH][dP][dC][dD][dY][dP][dE][dW][dQ][dW][dL][dC][dE][dL]GK-NH2
modifications: disulfide 3-12 (inferred); not fully specified (residue 16); also: homotrimer on trimethylolethane-triNHS ester scaffold
IC50, HXB2 pseudovirion entry [19]: 0.72 nM
IC50, JRFL pseudovirion entry [20]: 2.1 nM
IC50, antiviral potency, WT HXB2 [21]: 0.72 nM
IC50, antiviral potency, E560K/V570I (HXB2 background) [22]: 0.89 nM
IC50, antiviral potency, Q577R (HXB2 background) [23]: > 3000 nM

Ac-[dH][dP][dC][dD][dY][dP][dE][dW][dQ][dW][dL][dC][dE][dL]GK-NH2 (disulfide 3-12 (inferred); not fully specified (residue 16)) [Chol-PEG2-PIE12 (monomer)]
IC50, HXB2 pseudovirion entry [24]: 58 nM
IC50, HXB2 pseudovirion entry [19]: 69 nM

[dC][dD][dY][dP][dE][dW][dQ][dW][dL][dC][dE][dL]G[dK] (disulfide 1-10 (inferred)) [ΔHP-PIE12]
fold loss of potency against PIE12 [25]: 84 fold
IC50, HXB2 pseudovirion entry [19]: 3100 nM

Ac-[dH][dP][dC][dD][dY][dP][dE][dW][dQ][dW][dL][dC][dE][dL]GK-NH2 (disulfide 3-12 (inferred); not fully specified (residue 16)) [Chol-PEG24-PIE12 (monomer)]
IC50, HXB2 pseudovirion entry [24]: 0.4 nM
IC50, HXB2 pseudovirion entry [19]: 0.64 nM

Ac-[dH][dP][dC][dD][dY][dP][dE][dW][dQ][dW][dL][dC][dE][dL]G[dK]-NH2 (disulfide 3-12 (inferred)) [PIE12]
IC50, JRFL pseudovirion entry [26]: 578 nM
IC50, JRFL pseudovirion entry [27]: 580 nM

B2: C5C-PIE12-trimer (peptide)
peptide 1: Ac-[dH][dP][dC][dD][dY][dP][dE][dW][dQ][dW][dL][dC][dE][dL]G[dK]-NH2
peptide 2: Ac-[dH][dP][dC][dD][dY][dP][dE][dW][dQ][dW][dL][dC][dE][dL]G[dK][dK]-NH2
modifications: disulfide I:3-I:12, II:3-II:12 (inferred); also: trimer: C-terminal Lys linked by PEG5 spacers
IC50, JRFL pseudovirion entry [26]: 2.8 nM
IC50, HXB2 pseudovirion entry [24]: 0.33 nM
IC50, JRFL pseudovirion entry [27]: 2.8 nM
IC50, E560K/V570I HXB2 pseudovirion entry [28]: 0.84 nM
IC50, Q577R HXB2 pseudovirion entry [29]: 2960 nM

B3: PEG5-ΔHP-PIE12-trimer (peptide)
peptide: [dC][dD][dY][dP][dE][dW][dQ][dW][dL][dC][dE][dL]GK
modifications: disulfide 1-10 (inferred); not fully specified (residue 14); also: homotrimer on trimethylolethane-triNHS ester scaffold
IC50, HXB2 pseudovirion entry [19]: 380 nM

B4: Chol-PEG36-PIE12-trimer (peptide)
peptide: Ac-[dH][dP][dC][dD][dY][dP][dE][dW][dQ][dW][dL][dC][dE][dL]GK-NH2
modifications: disulfide 3-12 (inferred); not fully specified (residue 16); also: trimer on scaffold via PEG4, fourth arm PEG36 (PEG24 + PEG12 through D-Cys) carrying thiocholesterol
IC50, HXB2 pseudovirion entry [24]: 0.0054 nM
IC50, E560K/V570I HXB2 pseudovirion entry [28]: 0.0045 nM
IC50, Q577R HXB2 pseudovirion entry [29]: 2.7 nM

B5: N9N(PIE7)2 (peptide)
peptide: Ac-[dK]G[dA][dC][dD][dY][dP][dE][dW][dQ][dW][dL][dC][dA][dA]-NH2
modifications: disulfide 4-13 (inferred); also: dimer, N- to N-terminal Lys crosslinked by Bis-dPEG9 NHS ester
fold improvement of IC50 over the corresponding monomer [25]: ~325 fold
IC50, HXB2 pseudovirion entry [30]: 1.9 nM
IC50, JRFL pseudovirion entry [26]: 2300 nM

Ac-[dH][dP][dC][dD][dY][dP][dE][dW][dQ][dW][dL][dC][dE][dL]GK-NH2 (disulfide 3-12 (inferred); not fully specified (residue 16)) [Chol-PEG12-PIE12 (monomer)]
IC50, HXB2 pseudovirion entry [24]: 11 nM
IC50, JRFL pseudovirion entry [27]: 200 nM
IC50, HXB2 pseudovirion entry [19]: 12 nM

Ac-[dK]G[dA][dC][dD][dY][dP][dE][dW][dR][dW][dL][dC][dA][dA][dA]-NH2 (disulfide 4-13 (inferred); also: dimer, Lys crosslinked by PEG) [PEG-(PIE2-AAA)2]
IC50, pseudovirion entry [25]: 21 nM
fold improvement of IC50 over the corresponding monomer [25]: ~70 fold
